Measurements from US20190175751A1 (UNIVERSITY OF UTAH RESEARCH FOUNDATION, published 2019).

Molecular target: T1, FITC-HSA-MORF2 (human serum albumin grafted with multiple copies of morpholino MORF2, FITC-labelled) (human, UniProt P02768 25-609, a fraction of the amino groups converted with SM-(PEG)x to maleimido groups and carrying MORF2 via thioether bonds; FITC label)
T1 construct: mature; also called HSA-(MORF2)x; Nanoconjugate 2A
Assay: confocal microscopy on CD20-expressing Raji cells, without Cy5-Fab′RTX-MORF1
Description: Thus, we conducted in vitro confocal microscopy study, using CD20-expressing human NHL Raji B cell line (FIG. 7).

B1: CD20 on human Burkitt's B-cell non-Hodgkin's lymphoma Raji cells (receptor, UniProt P11836 1-297, looked up)
chain: MTTPRNSVNGTFPAEPMKGPIAMQSGPKPLFRRMSSLVGPTQSFFMRESKTLGAVQIMNGLFHIALGGLLMIPAGIYAPICVTVWYPLWGGIMYIISGSLLAATEKNSRKCLVKGKMIMNSLSLFAAISGMILSIMDILNIKISHFLKMESLNFIRAHTPYINIYNCEPANPSEKNSPSTQYCYSIQSLFLGILSVMLIFAFFQELVIAGIVENEWKRTCSRPKSNIVLLSAEEKKEQTIEIKEEVVGLTETSSQPKNEEDIEIIPIQEEEEEETETNFPEPPQDQESSPIENDSSP
notes: whole, on cells; also called CD20 antigen; CD20 receptor
binding result: no binding
